Assay results as given in article PMC3401642.

B1: Cyanovirin-N (natural protein)
chain: LGKFSQTCYNSAIQGSVLTSTCERTNGGYNTSSIDLNSVIENVDGSLKWQPSNFIETCRNTQLAGSSELAAECKTRAQQFVSTKINLDDHIANIDGTLKYE

Columns and labels:
[1] = target: HIV-1 subtype C Env clone COT9.6 V295N (HIV-1 subtype C)
[2] = target: HIV-1 subtype C Env clone COT6.15 V295N (HIV-1 subtype C)
[3] = target: HIV-1 subtype C Env clone Du151.2 V295N (HIV-1 subtype C)
[4] = target: HIV-1 subtype C envelope glycoprotein (Env, gp160) clone COT9.6 (HIV-1 subtype C)
[5] = target: HIV-1 subtype B envelope glycoprotein (Env, gp160) clone CAAN5342.A2 (HIV-1 subtype B)
[6] = target: HIV-1 subtype A envelope glycoprotein (Env) clone Q23.17 (HIV-1 subtype A)
[7] = target: HIV-1 subtype C envelope glycoprotein (Env, gp160) clone Du151.2 (HIV-1 subtype C)
[8] = target: HIV-1 subtype A envelope glycoprotein (Env) clone Q461.e2 (HIV-1 subtype A)
[9] = target: HIV-1 subtype C envelope glycoprotein (Env, gp160) clone CAP261.cvl93 (HIV-1 subtype C)
[10] = target: HIV-1 subtype A envelope glycoprotein (Env) clone Q168.a2 (HIV-1 subtype A)
[11] = target: HIV-1 subtype B envelope glycoprotein (Env, gp160) clone THRO4156.18 (HIV-1 subtype B)
[12] = target: HIV-1 subtype A envelope glycoprotein (Env) clone 92RW009 (HIV-1 subtype A)
[13] = target: HIV-1 subtype C envelope glycoprotein (Env, gp160) clone CAP210.E8J (HIV-1 subtype C)
[14] = target: HIV-1 subtype C envelope glycoprotein (Env, gp160) clone CAP63.A9J (HIV-1 subtype C)
[15] = target: HIV-1 subtype C envelope glycoprotein (Env, gp160) clone CAP270.cvl44 (HIV-1 subtype C)
[16] = target: HIV-1 subtype C envelope glycoprotein (Env, gp160) clone COT6.15 (HIV-1 subtype C)
[17] = target: HIV-1 subtype C envelope glycoprotein (Env, gp160) clone CAP63.cvl6GA (HIV-1 subtype C)
[18] = target: HIV-1 subtype C envelope glycoprotein (Env, gp160) clone CAP206.08J (HIV-1 subtype C)
[19] = target: HIV-1 subtype C envelope glycoprotein (Env, gp160) clone CAP177.cvl96 (HIV-1 subtype C)
[20] = target: HIV-1 subtype C envelope glycoprotein (Env, gp160) clone CAP228.51J (HIV-1 subtype C)
[21] = target: HIV-1 subtype B envelope glycoprotein (Env, gp160) clone QH0692.42 (HIV-1 subtype B)
[22] = target: HIV-1 subtype C envelope glycoprotein (Env, gp160) clone RP6.6 (HIV-1 subtype C)
[23] = target: HIV-1 subtype A envelope glycoprotein (Env) clone Q842.d12 (HIV-1 subtype A)
[24] = target: HIV-1 subtype B envelope glycoprotein (Env, gp160) clone PVO.4 (HIV-1 subtype B)
[25] = target: HIV-1 subtype B envelope glycoprotein (Env, gp160) clone WITO4160.33 (HIV-1 subtype B)
[26] = target: HIV-1 subtype C envelope glycoprotein (Env, gp160) clone TM7.9 (HIV-1 subtype C)
[27] = target: HIV-1 subtype C envelope glycoprotein (Env, gp160) clone CAP45.G3J (HIV-1 subtype C)
[28] = target: HIV-1 subtype B envelope glycoprotein (Env, gp160) clone AC10.0.29 (HIV-1 subtype B)
[29] = target: HIV-1 subtype C envelope glycoprotein (Env, gp160) clone CAP256.F7J (HIV-1 subtype C)

Molecule	IC50 of neutralisation of Env-pseudotyped virus (TZM-bl assay) [1] [nM]	IC50 of neutralisation of Env-pseudotyped virus (TZM-bl assay) [2] [nM]	IC50 of neutralisation of Env-pseudotyped virus (TZM-bl assay) [3] [nM]	IC50 of neutralisation of Env-pseudotyped virus (TZM-bl assay) [4] [nM]	IC50 of neutralisation of Env-pseudotyped virus (TZM-bl assay) [5] [nM]	IC50 of neutralisation of Env-pseudotyped virus (TZM-bl assay) [6] [nM]	IC50 of neutralisation of Env-pseudotyped virus (TZM-bl assay) [7] [nM]	IC50 of neutralisation of Env-pseudotyped virus (TZM-bl assay) [8] [nM]	IC50 of neutralisation of Env-pseudotyped virus (TZM-bl assay) [9] [nM]	IC50 of neutralisation of Env-pseudotyped virus (TZM-bl assay) [10] [nM]	IC50 of neutralisation of Env-pseudotyped virus (TZM-bl assay) [11] [nM]	IC50 of neutralisation of Env-pseudotyped virus (TZM-bl assay) [12] [nM]	IC50 of neutralisation of Env-pseudotyped virus (TZM-bl assay) [13] [nM]	IC50 of neutralisation of Env-pseudotyped virus (TZM-bl assay) [14] [nM]	IC50 of neutralisation of Env-pseudotyped virus (TZM-bl assay) [15] [nM]	IC50 of neutralisation of Env-pseudotyped virus (TZM-bl assay) [16] [nM]	IC50 of neutralisation of Env-pseudotyped virus (TZM-bl assay) [17] [nM]	IC50 of neutralisation of Env-pseudotyped virus (TZM-bl assay) [18] [nM]	IC50 of neutralisation of Env-pseudotyped virus (TZM-bl assay) [19] [nM]	IC50 of neutralisation of Env-pseudotyped virus (TZM-bl assay) [20] [nM]	other results
Griffithsin (from UniProt P84801 1-121) (natural protein)	0.06	0.06	0.03	1.2	11.7	1.9	1.5	0.12	4.2	3.3	1.2	1.8	0.2	23.2	0.3	0.4	25.7	30.9	55.9		
Scytovirin (from UniProt P86041 1-95) (natural protein)	63	16.1	32.5	57.6	188	29.8	27.5	18.9	6.2	9.4	42.6	21.8	33.1	29.8	11.7	10.8	43.8	113	21.8	20.1	IC50 of neutralisation of Env-pseudotyped virus (TZM-bl assay) [21]: 27.3 nM; IC50 of neutralisation of Env-pseudotyped virus (TZM-bl assay) [22]: 11.3 nM; IC50 of neutralisation of Env-pseudotyped virus (TZM-bl assay) [23]: 40.9 nM; IC50 of neutralisation of Env-pseudotyped virus (TZM-bl assay) [24]: 25.2 nM; IC50 of neutralisation of Env-pseudotyped virus (TZM-bl assay) [25]: 24.8 nM; IC50 of neutralisation of Env-pseudotyped virus (TZM-bl assay) [26]: 12.1 nM; IC50 of neutralisation of Env-pseudotyped virus (TZM-bl assay) [27]: 16.9 nM; IC50 of neutralisation of Env-pseudotyped virus (TZM-bl assay) [28]: 24.5 nM; IC50 of neutralisation of Env-pseudotyped virus (TZM-bl assay) [29]: 6.7 nM
B1	4.4	1.1	1.2	3.9	16.7	3	2	1.2	1.8	1.4		1.2	1.2	1.8		0.9	3.1	18	7.5	3.1	IC50 of neutralisation of Env-pseudotyped virus (TZM-bl assay) [21]: 2.5 nM; IC50 of neutralisation of Env-pseudotyped virus (TZM-bl assay) [22]: 1.1 nM; IC50 of neutralisation of Env-pseudotyped virus (TZM-bl assay) [23]: 2.5 nM; IC50 of neutralisation of Env-pseudotyped virus (TZM-bl assay) [25]: 1.5 nM; IC50 of neutralisation of Env-pseudotyped virus (TZM-bl assay) [26]: 1.1 nM; IC50 of neutralisation of Env-pseudotyped virus (TZM-bl assay) [28]: 0.3 nM; IC50 of neutralisation of Env-pseudotyped virus (TZM-bl assay) [29]: 1.1 nM
